Results from the supplement of paper PMC10567573.

B1: ZNF232 (parent)
chain: FPKSEQVYLHFLSVVTEDGPEPKD
B2: PWWP2B (parent)
chain: TIRLRPRQVLCEKCKSTLSPPEAS

Variants of: B1
Assay: protein stability index of a GFP-peptide fusion (GPS, HEK-293T) (PSI 1-6); higher = more stable
Details: c terminus: a fixed tail appended
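Note: lentivirally expressed fusions sorted by FACS into six bins by GFP to DsRed ratio, PSI derived from sequencing read proportions per bin multiplied by bin number.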

Variant | protein stability index
EPKSEQVYLHFLSVVTEDGPEPKD [F1E] | 4.82
VPKSEQVYLHFLSVVTEDGPEPKD [F1V] | 3.92
KPKSEQVYLHFLSVVTEDGPEPKD [F1K] | 4.44
HPKSEQVYLHFLSVVTEDGPEPKD [F1H] | 3.88
APKSEQVYLHFLSVVTEDGPEPKD [F1A] | 4.31
DPKSEQVYLHFLSVVTEDGPEPKD [F1D] | 4.86
IPKSEQVYLHFLSVVTEDGPEPKD [F1I] | 3.73
CPKSEQVYLHFLSVVTEDGPEPKD [F1C] | 4.31
GPKSEQVYLHFLSVVTEDGPEPKD [F1G] | 3.98
TPKSEQVYLHFLSVVTEDGPEPKD [F1T] | 4.05
SPKSEQVYLHFLSVVTEDGPEPKD [F1S] | 3.69
NPKSEQVYLHFLSVVTEDGPEPKD [F1N] | 4.29
PPKSEQVYLHFLSVVTEDGPEPKD [F1P] | 4.28
LPKSEQVYLHFLSVVTEDGPEPKD [F1L] | 3.95
MPKSEQVYLHFLSVVTEDGPEPKD [F1M] | 4.15
WPKSEQVYLHFLSVVTEDGPEPKD [F1W] | 3
QPKSEQVYLHFLSVVTEDGPEPKD [F1Q] | 4.75
YPKSEQVYLHFLSVVTEDGPEPKD [F1Y] | 2.01
RPKSEQVYLHFLSVVTEDGPEPKD [F1R] | 3.89
FAKSEQVYLHFLSVVTEDGPEPKD [P2A] | 1.91
FDKSEQVYLHFLSVVTEDGPEPKD [P2D] | 3.92
FEKSEQVYLHFLSVVTEDGPEPKD [P2E] | 4.04
FFKSEQVYLHFLSVVTEDGPEPKD [P2F] | 2.37
FKKSEQVYLHFLSVVTEDGPEPKD [P2K] | 2.91
FHKSEQVYLHFLSVVTEDGPEPKD [P2H] | 1.54
FGKSEQVYLHFLSVVTEDGPEPKD [P2G] | 2.78
FIKSEQVYLHFLSVVTEDGPEPKD [P2I] | 2.72
FCKSEQVYLHFLSVVTEDGPEPKD [P2C] | 2.75

Variants of: B2
Assay: as above
Details: c terminus: a fixed tail appended

Variant | protein stability index
TIRLRPRQVLCEKCKSTLSPPENS [A23N] | 3.12
TIRLRPRQVLCEKCKSTLSPPEPS [A23P] | 3.3
TIRLRPRQVLCEKCKSTLSPPECS [A23C] | 3.15
TIRLRPRQVLCEKCKSTLSPPESS [A23S] | 2.75
TIRLRPRQVLCEKCKSTLSPPEHS [A23H] | 2.83
TIRLRPRQVLCEKCKSTLSPPEGS [A23G] | 2.87
TIRLRPRQVLCEKCKSTLSPPEWS [A23W] | 1.96
TIRLRPRQVLCEKCKSTLSPPEKS [A23K] | 3.02
TIRLRPRQVLCEKCKSTLSPPEDS [A23D] | 3.54
TIRLRPRQVLCEKCKSTLSPPEYS [A23Y] | 2.47
TIRLRPRQVLCEKCKSTLSPPEVS [A23V] | 2.91
TIRLRPRQVLCEKCKSTLSPPEFS [A23F] | 2.43
TIRLRPRQVLCEKCKSTLSPPELS [A23L] | 2.47
TIRLRPRQVLCEKCKSTLSPPEES [A23E] | 3.49
TIRLRPRQVLCEKCKSTLSPPEMS [A23M] | 3.01
TIRLRPRQVLCEKCKSTLSPPEQS [A23Q] | 3.94
TIRLRPRQVLCEKCKSTLSPPEIS [A23I] | 2.61
TIRLRPRQVLCEKCKSTLSPPERS [A23R] | 2.73
TIRLRPRQVLCEKCKSTLSPPETS [A23T] | 2.99
TIRLRPRQVLCEKCKSTLNPPEAS [S19N] | 3.25
TIRLRPRQVLCEKCKSTLRPPEAS [S19R] | 2.59
TIRLRPRQVLCEKCKSTLPPPEAS [S19P] | 3.16

Variant | protein stability index
TIRLRPRQVLCEKCKSTLTPPEAS [S19T] | 2.37
TIRLRPRQVLCEKCKSTLHPPEAS [S19H] | 2.68
TIRLRPRQVLCEKCKSTLWPPEAS [S19W] | 1.84
TIRLRPRQVLCEKCKSTLLPPEAS [S19L] | 2.72
TIRLRPRQVLCEKCKSTLVPPEAS [S19V] | 3.18
TIRLRPRQVLCEKCKSTLGPPEAS [S19G] | 2.29
TIRLRPRQVLCEKCKSTLCPPEAS [S19C] | 2.99
TIRLRPRQVLCEKCKSTLEPPEAS [S19E] | 3.32
TIRLRPRQVLCEKCKSTLMPPEAS [S19M] | 2.74
TIRLRPRQVLCEKCKSTLYPPEAS [S19Y] | 2.94
TIRLRPRQVLCEKCKSTLIPPEAS [S19I] | 3.35
TIRLRPRQVLCEKCKSTLKPPEAS [S19K] | 2.56
TIRLRPRQVLCEKCKSTLDPPEAS [S19D] | 3.68
TIRLRPRQVLCEKCKSTLFPPEAS [S19F] | 2.83
TIRLRPRQVLCEKCKSTLQPPEAS [S19Q] | 3.01
TIRLRPRQVLCEKCKSTLAPPEAS [S19A] | 3.02
TIRLRPRQVLCEKCKSTLSPFEAS [P21F] | 2.56
TIRLRPRQVLCEKCKSTLSPCEAS [P21C] | 2.72
TIRLRPRQVLCEKCKSTLSPMEAS [P21M] | 2.73
TIRLRPRQVLCEKCKSTLSPVEAS [P21V] | 2.95
TIRLRPRQVLCEKCKSTLSPKEAS [P21K] | 3.21
TIRLRPRQVLCEKCKSTLSPTEAS [P21T] | 2.69

Variant | protein stability index
TIRLRPRQVLCEKCKSTLSPREAS [P21R] | 2.72
TIRLRPRQVLCEKCKSTLSPHEAS [P21H] | 2.79
TIRLRPRQVLCEKCKSTLSPSEAS [P21S] | 3.5
TIRLRPRQVLCEKCKSTLSPWEAS [P21W] | 2.35
TIRLRPRQVLCEKCKSTLSPYEAS [P21Y] | 2.42
TIRLRPRQVLCEKCKSTLSPQEAS [P21Q] | 2.98
TIRLRPRQVLCEKCKSTLSPIEAS [P21I] | 2.67
TIRLRPRQVLCEKCKSTLSPGEAS [P21G] | 2.78
TIRLRPRQVLCEKCKSTLSPNEAS [P21N] | 2.95
TIRLRPRQVLCEKCKSTLSPEEAS [P21E] | 3.63
TIRLRPRQVLCEKCKSTLSPLEAS [P21L] | 2.08
TIRLRPRQVLCEKCKSTLSPDEAS [P21D] | 3.89
TIRLRPRQVLCEKCKSTLSPAEAS [P21A] | 3.29
TIRLRPRQVLCEKCKSILSPPEAS [T17I] | 2.88
TIRLRPRQVLCEKCKSELSPPEAS [T17E] | 3.97
TIRLRPRQVLCEKCKSCLSPPEAS [T17C] | 2.5
TIRLRPRQVLCEKCKSHLSPPEAS [T17H] | 2.76
TIRLRPRQVLCEKCKSDLSPPEAS [T17D] | 3.19
TIRLRPRQVLCEKCKSNLSPPEAS [T17N] | 2.76
TIRLRPRQVLCEKCKSMLSPPEAS [T17M] | 2.77
TIRLRPRQVLCEKCKSWLSPPEAS [T17W] | 1.89
TIRLRPRQVLCEKCKSPLSPPEAS [T17P] | 3.44
